# Source: publication PMC3728706
# Target: fluorescently labeled peptide derived from the C-terminus of β-catenin
# Experiment: fluorescence polarisation
# Erbin PDZ domain, sequence (Q80TH2 1311-1400): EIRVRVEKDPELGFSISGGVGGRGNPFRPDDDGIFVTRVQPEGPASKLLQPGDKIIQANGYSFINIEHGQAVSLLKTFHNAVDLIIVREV
row,Molecule,Kd
1,Scrib PDZ domain (domain or fragment),13 µM
2,Grip1 PDZ domain (domain or fragment),369 µM
3,PDZk7 PDZ domain (domain or fragment),103 µM
4,SAP97 PDZ domain (domain or fragment),342 µM
5,PTP-BL PDZ domain (domain or fragment),79 µM
6,PSD95 PDZ domain (domain or fragment),31 µM
7,PDZk3 PDZ domain (domain or fragment),207 µM
8,Pard3 PDZ domain (domain or fragment),100 µM
9,LIN7 PDZ domain (from UniProt O88951 93-175) (domain or fragment),25 µM
10,NHERF-1 PDZ domain (domain or fragment),20 µM
11,Synip PDZ domain (domain or fragment) AFRVITVTKETGLGLKILGGINRNEGPLVYIHEVIPGGDCYKDGRLKPGDQLVSINKESMIGVSFEEAKSIITRAKLRSESPWEIAF,276 µM
12,PDZ11 PDZ domain (domain or fragment) IVTLKKPPGAQLGFNIRGGKASQLGIFISKVIPDSDAHRAGLQEGDQVLAVNDVDFQDIEHSKAVEILKTAREISMRVRFFPY,333 µM

# Molecules with a lower Kd, results first:
row,Kd,Molecule
1,0.6 µM,Magi-2 PDZ domain (domain or fragment)
2,6 µM,Erbin PDZ domain (from UniProt Q80TH2 1311-1400) (domain or fragment)
3,1 µM,Magi-1 PDZ domain 6 (domain or fragment)
4,1 µM,Magi-3 PDZ domain (domain or fragment)
5,0.3 µM,Tip1 PDZ domain (domain or fragment) RVEIHKLRQGENLILGFSIGGGIDQDPSQNPFSEDKTDKGIYVTRVSEGGPAEIAGLQIGDKIMQVNGWDMTMVTHDQARKRLTKRSEEVVRLLVTRQ
6,1 µM,Tiam2 PDZ domain (domain or fragment) DVQLTKTGDMTDFGFAVTVQVDEHQHLNRIFISDVLPDSLAYGGGLRKGNEITSLNGEPVSDLDIQQMEALFSEKSVGLTLVARPVT
7,9 µM,Shank3 PDZ domain (domain or fragment) VAILQKRDHEGFGFVLRGAKAETPIEEFTPTPAFPALQYLESVDVEGVAWRAGLRTGDFLIEVNGVNVVKVGHKQVVGLIRQGGNRLVMKVVSVT
